Reference: PMC8699279, “Exercise-Induced Irisin Decreases Inflammation and Improves NAFLD by Competitive Binding with MD2” (Cells, 2021)

Target: T1, recombinant human MD2 (human, UniProt Q9Y6Y9 19-160)
T1 construct: myeloid differentiation factor 2 (MD2), human, recombinant; No catalogue number is printed; PDB 2E56 was used only for docking; also called rhMD2; myeloid differentiation factor 2; source: bought: R&D Systems
T1 sequence: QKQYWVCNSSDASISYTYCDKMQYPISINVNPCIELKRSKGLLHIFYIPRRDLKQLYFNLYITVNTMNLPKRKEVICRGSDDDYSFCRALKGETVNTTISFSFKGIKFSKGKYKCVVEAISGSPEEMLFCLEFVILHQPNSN
Experiment: SPR; Biacore T200, CM5 chip, target protein amine-coupled; irisin flowed at seven concentrations, 30 μL/min, 200 s association, 200 s dissociation, 25 °C, PBS with 0.5% P20; global fit with a 1:1 Langmuir model
Settings: both partners purified

Kd: 1.65 nM
B1: recombinant irisin (ligand)
chain: DSPSAPVNVTVRHLKANSAVVSWDVLEDEVVIGFAISQQKKDVRMLRFIQEVNTTTRSCALWDLEEDTEYIVHVQAISIQGQSPASEPVLFKTPREAEKMASKNKDEVTMKE
modifications: Commercial recombinant protein (Phoenix Pharmaceuticals); catalogue number, host and glycosylation not stated. Limits are the conventional 112-aa mature irisin: residues 32-143 of the 212-aa FNDC5 …
